B1: A component of design #13 (D3 homooligomer, designed from 1d2t) (designed binder)
chain: MGHHHHHHGGLALVATGNDTTTKPDLYYLKNSEAINSLALLPPPPAVGSIAFLNDQAMYEQGRLLRNTERGKLAAEDANLSSGGVANAFSGAFGSPITEKDAPALHKLLTNMIEDAGDLATRSAKDHYMRIRPFAFYGVSTCNTTEQDKLSKNGSYPSGHTSIGWATALVLAEINPQRQNEILKRGYELGQSRVICGYHWQSDVDAARVVGSAVVATLHTNPEFQAQLIKAKIEFKQHQKEL
notes: also called component A; dihedral A
B2: A(d)mScarlet, dihedral A component with N-terminal mScarlet (A_n_mScarlet) (designed binder)
chain: NKIHGSHHHHHHGSTSGSAMVSKGEAVIKEFMRFKVHMEGSMNGHEFEIEGEGEGRPYEGTQTAKLKVTKGGPLPFSWDILSPQFMYGSRAFTKHPADIPDYYKQSFPEGFKWERVMNFEDGGAVTVTQDTSLEDGTLIYKVKLRGTNFPPDGPVMQKKTMGWEASTERLYPEDGVLKGDIKMALRLKDGGRYLADFKTTYKAKKPVQMPGAYNVDRKLDITSHNEDYTVVEQYERSEGRHSTGGMDELYKGGSGGSLALVATGNDTTTKPDLYYLKNSEAINSLALLPPPPAVGSIAFLNDQAMYEQGRLLRNTERGKLAAEDANLSSGGVANAFSGAFGSPITEKDAPALHKLLTNMIEDAGDLATRSAKDHYMRIRPFAFYGVSTCNTTEQDKLSKNGSYPSGHTSIGWATALVLAEINPQRQNEILKRGYELGQSRVICGYHWQSDVDAARVVGSAVVATLHTNPEFQAQLIKAKIEFKQHQK
notes: also called AmScarlet

How the values were obtained:
[1] = biological target: T1, B(c)GFP, cyclic B component with C-terminal GFP (Di13BLB_C_GFP); test: stepwise array assembly on NIH/3T3 cells
[2] = biological target: T1, B(c)GFP, cyclic B component with …; test: calibrated microscope, corrected for FRET between GFP and mScarlet
[3] = biological target: T1, B(c)GFP, cyclic B component with …; test: quantitative fluorescence microscopy of preformed arrays

Row | Binder | binding result [1] | A/B ratio of arrays generated on cells [2] | mScarlet/GFP fluorescence ratio (arrays formed in vitro) [3]
1 | B1 | binds | – | –
2 | B2 | – | 0.99 | 1.45

Source: patent US20230287402A1 (University of Washington, published 2023)
